From US20190177414A1 (AKESO BIOPHARMA, published 2019)

Target: T1, CTLA4 antigen (CTLA4 protein obtained by cleaving the CTLA4-mFc fusion protein with TEV protease) (human, UniProt P16410 36-161)
T1 construct: extracellular domain; after cleavage part of the TEV site may remain at the C-terminus; also called CTLA4ECD
T1 sequence (looked up): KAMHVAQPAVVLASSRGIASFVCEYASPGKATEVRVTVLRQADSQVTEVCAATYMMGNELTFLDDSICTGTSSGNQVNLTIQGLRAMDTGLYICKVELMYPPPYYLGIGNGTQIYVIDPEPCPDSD
Test: Octet (ForteBio) BLI; antibody amine-coupled to AR2G sensor, CTLA4 antigen in solution
Method: The dynamic parameters of the antigen—antibody binding were determined using the ForteBio molecular interaction analyzer (Octet). The CTLA4-mFc fusion protein prepared in Example 1 was cleaved using the TEV protease, and the CTLA4 antigen was obtained by purification on a column. […] After equilibration in PBST, the CTLA4 antigen was added for binding. […] Dissociation occurred in PBST.

Kd: 0.301 nM
koff: 0.000114 s⁻¹
kon: 378000 M⁻¹ s⁻¹
B1: anti-CTLA4 antibody 4G10 (antibody, V domains shown)
VH: QVKLQESGPELVKPGASMKISCKASGYSFTGYTMNWVKQSHGKNLEWIGLINPYNNITNYNQKFMGKATFTVDKSSSTAYMELLRLTSEDSGVYFCARLDYRSYWGQGTLVTVSA
VL: QAVVTQESALTTSPGETVTLTCRSSTGAVTTSNFANWVQEKPDHLFTSLIGGTNNRAPGVPARFSGSLIGDKAALTITGAQTEDEAIYFCALWYSNHWVFGGGTKLTVLG
notes: Mouse monoclonal antibody purified from hybridoma supernatant; also called monoclonal antibody secreted by hybridoma cell line LT002 (CTLA4-4G10)
